Reference: paper PMC4910529 (The EMBO Journal, 2016)
Substitutions are numbered along the chain they refer to. Names may count otherwise. Where no end group is shown, it is not given here.

B1: SPOP ΔBACK (domain or fragment)
chain: KVVKFSYMWTINNFSFCREEMGEVIKSSTFSSGANDKLKWCLRVNPKGLDEESKDYLSLYLLLVSCPKSEVRAKFKFSILNAKGEETKAMESQRAYRFVQGKDWGFKKFIRRDFLLDEANGLLPDDKLTLFCEVSVVQDSVNISGQNTMNMVKVPECRLADELGGLWENSRFTDCCLCVAGQEFQAHKAILAARSPVFSAMFEHEMEESKKNRVEINDVEPEVFKEMMCFIYTGKAPNLDKMADDLLAAADKYALERLKVMCEDALCSNLSVENAAEILILADLHSADQLKTQAVDFINYHASDVLETSG
B2: SPOP^28–359 (speckle‐type POZ protein, residues 28–359) (domain or fragment)
chain: KVVKFSYMWTINNFSFCREEMGEVIKSSTFSSGANDKLKWCLRVNPKGLDEESKDYLSLYLLLVSCPKSEVRAKFKFSILNAKGEETKAMESQRAYRFVQGKDWGFKKFIRRDFLLDEANGLLPDDKLTLFCEVSVVQDSVNISGQNTMNMVKVPECRLADELGGLWENSRFTDCCLCVAGQEFQAHKAILAARSPVFSAMFEHEMEESKKNRVEINDVEPEVFKEMMCFIYTGKAPNLDKMADDLLAAADKYALERLKVMCEDALCSNLSVENAAEILILADLHSADQLKTQAVDFINYHASDVLETSGWKSMVVSHPHLVAEAYRSLASA
B3: SPOP mutBACK (SPOP 28–359 Y353E) (domain or fragment)
chain: B2 chain with Y326E
B4: Puc peptide, residues 91–107 of Puckered, fluorescein-labelled (peptide)
peptide: ENLACDEVTSTTSSSST-NH2
modifications: not fully specified (N-terminus)

How the values were obtained:
SPOP X‐BACK = assay: CG-MALS
[1] = biological target: SPOP mutBACK (SPOP 28–359 Y353E) (UniProt O43791); assay: cross-linking
[2] = biological target: SPOP mutBACK (SPOP 28–359 Y353E) (UniProt O43791); assay: CG-MALS
[3] = biological target: SPOP mutBTB (SPOP 28–359 L186D L190D L193D I217K) (UniProt O43791); assay: CG-MALS
[4] = biological target: SPOP mutBTB (SPOP 28–359 L186D L190D L193D I217K) (UniProt O43791); assay: AUC
cross-linking = biological target: the molecule itself; assay: cross-linking
native MS = biological target: the molecule itself; assay: native MS
CG-MALS = biological target: the molecule itself; assay: CG-MALS
[5] = biological target: B2; assay: SEC
[6] = biological target: B3; assay: fluorescence polarisation

SPOP X‐BACK
Kd (SPOP X‐BACK): 118 µM

SPOP mutBACK (SPOP 28–359 Y353E) (from UniProt O43791 28-359) (domain or fragment)
stoichiometry N [1]: 2 | stoichiometry N [2]: 2

SPOP mutBTB (SPOP 28–359 L186D L190D L193D I217K) (from UniProt O43791 28-359) (domain or fragment)
Kd [3]: 36 µM | stoichiometry N [3]: 2 | Kd [4]: 32.5 µM

B1
stoichiometry N (cross-linking): 2

B2
stoichiometry N (native MS): 8 | Kd (CG-MALS): 2.4 µM

B3
binding result [5]: binds

B4
Kd [6]: 4.1 µM
